Assay: soluble on expression in E. coli; label from the status in PepcDB or PDB records

Row | Sequence | soluble on expression in E. coli
1 | MPIHSLSLAGFRSIRKLTLELDALNVVVGANGCGKSNLYKSIQLLHAAAEGGLSAALAAEGGAQKAMWAGGTRRGDKARVPKRMILSARLDDYDYELQLGYPEPSCSLFALDPLVKEESLWLAGHGRRPSTLLLERRNQAAFLCGVEGERNSYPASLRAEESLFGQLAEPHRYPELSQVRETLRNWRFYHEFAIWPGSPLRAPQVGIRSPVLAHDGANLAAAFQTIVEIGDHELLHSVLTDAFPDSRFLVDAQQGRFQMLMRRDGLLRPLEAAELSDGTLRFLCLAVALLSPRPPAFMALNEPENSLHPALLPALARLIAEASRHSQLWVTSHSPELAERIRRHRPLKTFQLSLRDGETVLQDDLEHHHHHH | not soluble
2 | MGSDKIHHHHHHLTYDEIKKNKEVCECLKKGNENLGVLGFTDHSVAHCTMVAKRAAYILKKFGYSESDIEMVKIAGFMHDIGNVVNRSRHAEYGAILANEILKETDMSLKDRITVVSAIGHHDESTGGATDPISAALIIADKTDVRRNRVRNKAKENFDIHDRVNYAVTDAALKINMDKKVIALNLQIDTKICSMYEYFEIFLGRMMMCRGAAEVLGATFKLTANGSKVL | not soluble
3 | MSPTTDRIAVVGGSISGLTAALMLRDAGVDVDVYERSPQPLSGFGTGIVVQPELVHYLLEQGVELDSISVPSSSMEYVDALTGERVGSVPADWRFTSYDSIYGGLYELFGPERYHTSKCLVGLSQDSETVQMRFSDGTKAEANWVIGADGGASVVRKRLLGIEPTYAGYVTWRGVLQPGEVADDVWNYFNDKFTYGLLDDGHLIAYPIPGRENAESPRLNFQWYWNVAEGPDLDELMTDVRGIRLPTSVHNNSLNPHNLRQFHSKGESLFKPFRDLVLNASSPFVTVVADATVDRMVHGRVLLIGDAAVTPRPHAAAGGAKASDDARTLAEVFTKNHDLRGSLQSWETRQLQQGHAYLNKVKKMASRLQHGGSFEPGNPAFAFGLPKVDEPSVVTNS | soluble
4 | MSRYNWNVPILEVLKEAVMVKKLNKIAVVGTPCVINAVYQMMATNNDLVEPFKKAIRLKISLFCFETFDYDKMLKKLKEVEVNPWDIKKMEIDKGKLIVSTIHGNVFNFKIDEMDEYVRKGCKVCRDFTGISSDISVGNVGTPEGYSTVLVRNKWGKGFFDRAVINGYVSVEGEASIDPVISLSKKKMERKDIEFLEHHHHHH | soluble
5 | MGLRFPPKVLEHILSFIDSNEDRNSVSLVCKSWFETERKTRKRVFVGNCYAVSPAAVTRRFPEMRSLTLKGKPHFADYNLVPDGWGGYAWPWIEAMAAKSSSLEEIRMKRMVVTDECLEKIAASFKDFKVLVLTSCEGFSTDGIAAIAATCRNLRVLELRECIVEDLGGDWLSYFPESSTSLVSLDFSCLDSEVKISDLERLVSRSPNLKSLKLNPAVTLDGLVSLLRCAPQLTELGTGSFAAQLKPEAFSKLSEAFSNCKQLQSLSGLWDVLPEYLPALYSVCPGLTSLNLSYATVRMPDLVELLRRCSKLQKLWVMDLIEDKGLEAVASYCKELRELRVFPSEPDLDATNIPLTEQGLVFVSKGCRKLESVLYFCVQFTNAALFTIARKRPNLKCFRLCVIEPFAPDYKTNEPLDKGFKAIAEGCRDLRRLSVSGLLSDKAFKYIGKHAKKVRMLSIAFAGDSDLMLHHLLSGCESLKKLEIRDCPFGDTALLEHAAKLETMRSLWMSSCFVSFGACKLLSQKMPRLNVEVIDEHPPESRPESSPVERIYIYRTVAGPRMDTPEFVWTIHKNPENGVSHLAIK | not soluble
6 | MSLIIETPSKVILFGEHAVVYGYRAISMAIDLTSTIEIKETQEDEIILNLNDLNKSLGLNLNEIKNINPNNFGDFKYCLCAIKNTLDYLNIEPKTGFKINISSKIPISCGLGSSASITIGTIKAVSGFYNKELKDDEIAKLGYMVEKEIQGKASITDTSTITYKGILEIKNNKFRKIKGEFEEFLKNCKFLIVYAEKRKKKTAELVNEVAKIENKDEIFKEIDKVIDEALKIKNKEDFGKLMTKNHELLKKLNISTPKLDRIVDIGNRFGFGAKLTGAGGGGCVIILVNEEKEKELLKELNKEDVRIFNCRMMNEGGSHHHHHH | soluble
7 | MSLSDARLVADLSDVFTDIGVEHAVSGAQIEEFVARMPEVGHSLVAVHRRLRAATEELEGYRSRATAETELPPARPMPFEEVRDFFYDRNNYIHDLDMAAERMFTESGMRTGGLDIQLAELMRDRFGISVVIDDNLPDTAKRRYHPDTKVLRVAHWLMPGQRAFQIATQLALVGQSDLISSIVATDDQLSTEARGVARIGLANYFAGAFLLPYREFHRAAEQLRYDIDLLGRRFGVGFETVCHRLSTLQRPRQRGIPFIFVRTDKAGNISKRQSATAFHFSRVGGSCPLWVVHDAFAQPERIVRQVAQMPDGRSYFWVAKTTAADGLGYLGPHKNFAVGLGCDLAHAHKLVYSTGVVLDDPSTEVPIGAGCKICNRTSCAQRAFPYLGGRVAVDENAGSSLPYSSTEQSVEGHHHHHH | soluble
8 | MSLPIRIDKKLPAVEILRTENIFVMDDQRAAHQDIRPLKILILNLMPQKMVTETQLLRHLANTPLQLDIDFLYMESHRSKTTRSEHMETFYKTFPEVKDEYFDGMIITGAPVEHLPFEEVDYWEEFRQMLEWSKTHVYSTLHICWGAQAGLYLRYGVEKYQMDSKLSGIYPQDTLKEGHLLFRGFDDSYVSPHSRHTEISKEEVLNKTNLEILSEGPQVGVSILASRDLREIYSFGHLEYDRDTLAKEYFRDRDAGFDPHIPENYFKDDDVNQVPCLCWSSSAALFFSNWVNHAVYQETPFDWRKIEDDASAYGYLEGHHHHHH | soluble
9 | MPSDAPIDFTGLIRASDLVVCGQATAEPLTLTEALMAQAADLPPFRLMVGPVFSDTFAAAPPNVSFVSYGVIGHARKLARAGRLDVIPSNYSAFCADFAAGRHRADVVLVQLAEAPDGRLSASLSCDYVIDAARRARLVIAEINPDAPFTYGAEWPGEVPIHIRVAARRKPVELPSGALDDVSRKIAANAAGLIADGATLQFGVGKIPDAILSSLVHARDLGIHSGLINDAVVELIERGVVTNARKGIDPGVTVTNQLIGTQRLYRFAHQNRSVRMQPAAYTHDHGVLGRINRLTAINSALQVGLDGSVNAETLNGVAIGAIGGQLDFVRGANASPGGRALIALPATAPDGSSRIVARVETVTTPRADVDVIVTEWGVAELRGCSLAERARQMIAIAAPEHRDRLAEQARTIALEHHHHHH | not soluble
10 | MKLRTKIKRVRDVELPKYAKTGDSGFDLVAAEDTVIWPGETKVVPTGLAFEIPPGYELQVRPRSGMTRNTKLRVVLGTVDSGYRGEVGVLVDNTEIPKATNMQAHVIEKGTRIAQGVIVPVITAHFEEVDELSDSERGSGGFGSTGVK | not soluble
11 | MMEIKRVLKDRLSARVCVIGAGPSGIAAIKNLQEHGITNVTVFEKNNQIGGNWVYDEQNEHSSVYETTHIISSKRWSEFEDFPMPVDYPDYPSHSQLLKYFQSYVEHFHLDRYIRFNTVVQKVHRLDDNTWHVIYEDAQGIHEACYDYLLVANGHHWDPFMPVYPGVFDGEILHSHQYKKASIFKGKRVLVVGGGNSACDVAVEISRVAPGTCISMRRGYHIFPKFIFGKPTDVAVAKIQWMPSWLRQKFISLVIRGLQGRYAKYKLMKPDCGPLEIHPTINSELLYFIRHGKIHPRSGISRFEGNTVHFTDRTQGEFDTIIFATGYQISFPFFDKSCIDFSNSTTIPLYRKMMHPEFENLYFIGLCQPQGCIWPLADYQSKIVARIIAGTLKRPDQLHRKIAKEINKPHHRFKSHMRHALEVDYHIFRKELLEMLGQKHKRLKFYPLEHHHHHH | soluble
12 | MGSDKIHHHHHHMFKTIHPLSVARHGKLRLKPVSDYRFAAQEAVIGLVGAEIHKAIHAFPIAFLRSAHAGGTSCQMVGLLSVTPGQNLLVSPDGRWLGDYIPAALRAYPFVLARSQEDADTRLPCLDEDCGLLSESEGQPLFSEDGQLSDFSRRIIDFLTATERNREATQKGVDVLEKAQLFTPWSLQVVIQKQTKAIEGFHVIDETKLNQLDDETWLALRRAGVLPLVYGHLLSLNRTDLLGQLSGLQAQLAQQLTARPKLDDMLDFGDESILQF | not soluble
13 | MGSDKIHHHHHHMSLTNVLFLAEELRVGGAETYFYKIENKIDLKKINFYTAAVNGRCFDKLNNKHMYFEYEKGLFSKIKTIKKIVISKNINVIHANSLRLAIISSIVKKLYKKDLKIVYTKHNLTILEKIHTKLFSAFVNKNVDIVLAVCNKDRDNMISIGVSEEKVKVIPNSIDLKHFKFNSKYLRDAGKDFKVGMLSRLSKEKNHEFFLDIAEKADFRALIGGDGPLREEINNRIEKSNLKKKVKMLGNIENSYEFLSSVDVMLLVSTREIFPMTLLEAMAVGTIVISVDIGGIRDCVINDKTGYVIDDYQSEKFITKISDILSDYDKNKELISAARELVENSFNLDITIDELQRLYGEVGL | not soluble
14 | MSLYNKVLIIDDHPVLRFAVRVLMEKEGFEVIGETDNGIDGLKIAREKIPNLVVLDIGIPKLDGLEVIARLQSLGLPLRVLVLTGQPPSLFARRCLNSGAAGFVCKHENLHEVINAAKAVMAGYTYFPSTTLSEMRMGDNAKSDSTLISVLSNRELTVLQLLAQGMSNKDIADSMFLSNKTVSTYKTRLLQKLNATSLVELIDLAKRNNLAEGHHHHHH | not soluble
15 | MGSDKIHHHHHHMKSVSVRSCKTYNYEEVKLSIEKNLEDIGGIDKFVKKGSKVLIKPNLLMKKKPEEATTTHPMVVKVVCEKLLELNCDITIADSPGGPYNQSSLKSIYKASGIEEVANELGIKLNYDVSDVKIHSEKAHVLKYMDIIKPIVDSDYIINLCKLKTHIMATFTGGTKNLYGCIAGLKKAEIHYRFPTEELFCENVLLDICDYIKPTLTIMDGIVGMEGDGPSAGTTREIGVLLASQNPYAIDVVACKIISLLPNRVATIRGAIKRGYIQEDFSDIEILGEDIKDLIIKNYKIPNVSKDLRLFSVKLPKFLNEPISKLITPKPVVRFQDCIKCGKCKEACPASTIEIGTKGAIIDLSKCIRCYCCHELCPKKAIDVKRNFVFKYVK | not soluble
16 | MLRRSSRHADQRKNGAQLRAEEEANKVKLRLTAENEKLKSEVEKLKKDHEELSRVTLKVNTEFTIQESHMARLLRENMSLKEQLNDFSFKLRFRDDMSRVEEQVKKEQGVTDGYRRRVNQLTEFHVKSQEEQRGEPFPWRTCEICACKFEGETMDQTPRVLGCGHTMCMGCVQKIVGQGYIKCPFCRIVTKIGTTPLNNLPKNYIVLNM | not soluble
17 | MSLKHVIVETEETGYQTRSRVVSVEARTIRVPLERSTAFSTRLVTARDYTVVRVTTADGHYGIGFCYSGNRAGMLVTYAVRELFAPLLLGRSALDVEGSWCAMYDESLLQGRAGSVMRALSILDIALWDRNARATGLPLSRYLGGTCSATVPAYASGGYYLEGKTPEHLGEEMAGYVALGFRAVKMKVGRLDPRSEEARIRAAREAIGDDVLLMLDANNAWSDVPTALEYMRRYEPFNPYWIEEPFSPDDIESHAQLSRRTPVTVATGEIEAGRWRHQELLDKRAALILQSDAAVCGGISEWRRIAASAAAVGVTMCPHWFHDLHVHLVASTTNARYVEFFPDDQVLNFRRLVDTQLSFADGKLTVPTRPGLGFDFDEAALNEYALDDWAEGHHHHHH | not soluble
18 | MGHERDWSLVQVALTDITARKKAEAYLEYLGKHDVLTKLHNRAFYSDELNRLERSALRPVSAIVIDLNGLKEANDKLGHDAGDALLRRVGEVLNGVVTAPNHAARIGGDEFAILLPGADKQVAAAMVDTVYELLKINNQFYSSAPLSLSLGVATTEAGETMESLVRRADMNMYEQKNALEHHHHHH | soluble
19 | MSLKARKSWISDKGPLSVSTQCELAGVTRSGYYGQSKSLMPNTEDLELMKLIDEEYTRHPFYGSRRMKRVLLAQGRKVNRKRVQRLMRNLGLAGIAPGPNTSKPHPQHKIYPYLLRGLVITRPNHVWSTDVTYCRLPGGFMYLTAVIDWYSRKVLAWRLSNSLDSSFCVDCLEEAIRKYGMPEIFNTDQGTQYTSEAFTGVLKSHDIRISMDGRGRALDNIFVERLWRNVKQEDLYLKGYETAVEMMRGLTEYFRFYNIERPHQSLGYKTPDEVYESATGGGARIVDKFFQKSVSEGSSEATGPQQEAAEGHHHHHH | soluble

From the DeepSol protein solubility set
